Experimental data: PMC12080921

Molecular target: biotinylated bovine FI
Assay: biolayer interferometry
Conditions: n = 3; parent: 27 ± 3 nM

Substance	Kd [nM]
PmSLP-1^15-318 D121A	117
PmSLP-1^15-318 D124R	53
PmSLP-1^15-318 D210A	272
PmSLP-1^15-318 E132R	28
PmSLP-1^15-318 I133D	43
PmSLP-1^15-318 K236E	32
PmSLP-1^15-318 L127D	85
PmSLP-1^15-318 R167A	107

Molecular target: biotinylated bovine FI (bovine)
Assay: BLI; Octet RED96; biotinylated bovine FI (150 nM) on streptavidin biosensors; PmSLP-1 as analyte at 0, 5, 16, 50, 160, 500, 1600 nM; 30 °C; PBS pH 7.4, 0.01% Tween 20; steady-state analysis, one-site model
Conditions: not given

Substance	Kd [nM]
PmSLP-1^15-318 (domain or fragment)	27
